Literature values, collected in publication PMC5218898.

Assays:
EnvZ (Escherichia coli) = EnvZ (Escherichia coli) (UniProt P0AEJ4)
RstB (Escherichia coli) = RstB (Escherichia coli) (UniProt P18392)

Kd (RstB (Escherichia coli)) [nM] | Substance | Kd (EnvZ (Escherichia coli)) [nM]
– | EnvZ (from UniProt P0AEJ4) | 300
300 | RstB (from UniProt P18392) | –
